From patent US7081343

Target: T7-RelA (UniProt Q04206)
Sequence (Q04206 whole entry): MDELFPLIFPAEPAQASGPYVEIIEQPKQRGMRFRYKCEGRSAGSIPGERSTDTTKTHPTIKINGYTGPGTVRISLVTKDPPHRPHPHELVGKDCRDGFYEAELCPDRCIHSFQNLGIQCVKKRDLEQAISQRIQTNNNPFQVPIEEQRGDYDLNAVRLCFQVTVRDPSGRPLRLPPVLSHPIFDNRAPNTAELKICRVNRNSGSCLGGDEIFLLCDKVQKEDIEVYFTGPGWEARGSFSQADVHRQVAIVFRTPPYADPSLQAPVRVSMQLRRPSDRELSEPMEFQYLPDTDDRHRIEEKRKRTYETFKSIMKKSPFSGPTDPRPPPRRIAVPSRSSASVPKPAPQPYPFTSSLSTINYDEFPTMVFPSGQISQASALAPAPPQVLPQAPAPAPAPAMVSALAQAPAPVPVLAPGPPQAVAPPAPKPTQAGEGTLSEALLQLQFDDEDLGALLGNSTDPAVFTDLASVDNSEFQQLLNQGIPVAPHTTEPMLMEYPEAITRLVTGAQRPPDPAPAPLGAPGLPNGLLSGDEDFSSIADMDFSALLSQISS

Substance	acetylation of T7-RelA (anti-T7 immunoprecipitation, anti-acetylated lysine blot)
CBP	Co-expression of either p300 or CBP with RelA produced dose related acetylation of T7-Rel A
p300	Co-expression of either p300 or CBP with RelA produced dose related acetylation of T7-Rel A
